According to patent publication US20240368250A1 (Ablynx, published 2024):
Substitutions are numbered along the chain they refer to. Names and notes keep the numbering of the source.

B1: TPP-66149 (Fc fusion)
chain 1: DVQLVESGGGVVQAGGSLSISCAASGGSLSNYVLGWFRQAPGKEREFVAAINWRGDITIGPPNVEGRFTISRDNAKNTGYLQMNSLAPDDTALYYCGAGTPLNPGAYIYDWSYDYWGRGTLVTVSSDKTHTCPPCPAPEAAGGPSVFLFPPKPKDTLMISRTPEVTCVVVDVSQEDPEVQFNWYVDGVEVHNAKTKPREEQFNSTYRVVSVLTVLHQDWLNGKEYKCKVSNKGLPSSIEKTISKAKGQPREPQVYTLPPCQEEMTKNQVSLWCLVKGFYPSDIAVEWESNGQPENNYKTTPPVLDSDGSFFLYSKLTVDKSRWQEGNVFSCSVMHEALHNHYTQKSLSLSLGGGGGSGGGGSGGGGSGGGGSGGGGSGGGGSGGGGSEVQLVESGGGVVQPGDSLRLSCAASGGTFSTYVMGWFRQAPGKEREFVSAISQNSIHTYYANSVKGRFTISRDNSKNTVYLQLNSLRPEDTALYYCAASRFTSWYTADYEYDYWGQGTLVTVSSA
chain 2: DVQLVESGGGVVQAGGSLSISCAASGGSLSNYVLGWFRQAPGKEREFVAAINWRGDITIGPPNVEGRFTISRDNAKNTGYLQMNSLAPDDTALYYCGAGTPLNPGAYIYDWSYDYWGRGTLVTVSSDKTHTCPPCPAPEAAGGPSVFLFPPKPKDTLMISRTPEVTCVVVDVSQEDPEVQFNWYVDGVEVHNAKTKPREEQFNSTYRVVSVLTVLHQDWLNGKEYKCKVSNKGLPSSIEKTISKAKGQPREPQVCTLPPSQEEMTKNQVSLSCAVKGFYPSDIAVEWESNGQPENNYKTTPPVLDSDGSFFLVSKLTVDKSRWQEGNVFSCSVMHEALHNRFTQKSLSLSLG
notes: IgG4 FALA Fc knob-in-hole, C-terminal T023500029 via 35GS
B2: TPP-66151 (Fc fusion)
chain 1: B1 chain 2 with C255Y, S260C, S272W, A274L, V313Y, R341H, F342Y
chain 2: DVQLVESGGGVVQAGGSLSISCAASGGSLSNYVLGWFRQAPGKEREFVAAINWRGDITIGPPNVEGRFTISRDNAKNTGYLQMNSLAPDDTALYYCGAGTPLNPGAYIYDWSYDYWGRGTLVTVSSDKTHTCPPCPAPEAAGGPSVFLFPPKPKDTLMISRTPEVTCVVVDVSQEDPEVQFNWYVDGVEVHNAKTKPREEQFNSTYRVVSVLTVLHQDWLNGKEYKCKVSNKGLPSSIEKTISKAKGQPREPQVCTLPPSQEEMTKNQVSLSCAVKGFYPSDIAVEWESNGQPENNYKTTPPVLDSDGSFFLVSKLTVDKSRWQEGNVFSCSVMHEALHNRFTQKSLSLSLGGGGGSGGGGSGGGGSGGGGSGGGGSGGGGSGGGGSVKVKFWPRGEEKVVDTSKIAWVLRADKTVMFKYDDNGKKGYGVVLEKDAPKELLDMLARAEREK
B3: T-0263-00_TP117 (antibody, human IgG1, kappa)
heavy 1: not shown
heavy 2: EVQLVESGGGLVQPGGSLRLSCAASGFNIRDTYIHWVRQAPGKGLEWVARIYPTQGYTRYADSVKGRFTISADTSKNTAYLQMNSLRAEDTAVYYCSRWGGEGFYAMDYWGQGTLVTVSSASTKGPSVFPLAPSSKSTSGGTAALGCLVKDYFPEPVTVSWNSGALTSGVHTFPAVLQSSGLYSLSSVVTVPSSSLGTQTYICNVNHKPSNTKVDKKVEPKSCDKTHTCPPCPAPELLGGPSVFLFPPKPKDTLMISRTPEVTCVVVDVSHEDPEVKFNWYVDGVEVHNAKTKPREEQYNSTYRVVSVLTVLHQDWLNGKEYKCKVSNKALPAPIEKTISKAKGQPREPQVCTLPPSRDELTKNQVSLSCAVKGFYPSDIAVEWESNGQPENNYKTTPPVLDSDGSFFLVSKLTVDKSRWQQGNVFSCSVMHEALHNRFTQKSLSLSPG
light: not shown
notes: Full-length IgG1 with knob-in-hole mutations (hole chain H435R, Y436F), no C-terminal fusion
B4: T-0263-00_TP118 (antibody, human IgG1, kappa)
heavy 1: not shown
heavy 2: B3 heavy 2
light: not shown
notes: Full-length IgG1 knob-in-hole with a C-terminal irrelevant ISVD (9GS) on chain 1; control of TP121

Legend:
[1] = target: Human serum albumin (HSA; Sigma-Aldrich Cat No. A8763) (human, UniProt P02768 25-609); test: SPR Biacore 8K+, HSA on C1 chip, pH 7.4, 1:1 fit
[2] = target: Mouse serum albumin (MSA; Albumin Bioscience Cat No. 2601) (mouse, UniProt P07724 25-608); test: SPR Biacore 8K+, MSA on C1 chip, pH 7.4, 1:1 fit (off-rate only)
[3] = target: T1, Human FcRn (biotinylated human FcRn) (human, UniProt P61769 21-119); test: SPR Biacore 8K+, biotinylated hFcRn on SA chip (~500-600 RU), pH 6.0, bivalent analyte fit;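 note: analytes were Fc proteins binding to biotinylated human FcRn captured on a Series S streptavidin sensor chip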
T1 construct: Biotinylated human FcRn captured on a Series S Sensor Chip SA; also called human neonatal Fc receptor; hFcRn

[4] = target: T1, Human FcRn (biotinylated human FcRn); test: SPR Biacore 8K+, biotinylated hFcRn on SA chip (~500-600 RU), pH 6.0, bivalent analyte fit (KD1)
[5] = target: T1, Human FcRn (biotinylated human FcRn); test: SPR Biacore 8K+, biotinylated hFcRn on SA chip (~500-600 RU), pH 6.0, bivalent analyte fit (ka1)
[6] = target: T1, Human FcRn (biotinylated human FcRn); test: SPR Biacore 8K+, biotinylated hFcRn on SA chip (~500-600 RU), pH 6.0, bivalent analyte fit (kd1)
[7] = target: T1, Human FcRn (biotinylated human FcRn); test: SPR Biacore 8K+, biotinylated hFcRn on SA chip (~700 RU), pH 6.0, bivalent analyte fit
[8] = target: T1, Human FcRn (biotinylated human FcRn); test: SPR Biacore 8K+, biotinylated hFcRn on SA chip (~700 RU), pH 6.0, bivalent analyte fit (KD1)
[9] = target: T1, Human FcRn (biotinylated human FcRn); test: SPR Biacore 8K+, biotinylated hFcRn on SA chip (~700 RU), pH 6.0, bivalent analyte fit (ka1)
[10] = target: T1, Human FcRn (biotinylated human FcRn); test: SPR Biacore 8K+, biotinylated hFcRn on SA chip (~700 RU), pH 6.0, bivalent analyte fit (kd1)

Binder | Kd [1] [nM] | koff [1] [s⁻¹] | kon [1] [M⁻¹ s⁻¹] | koff [2] [s⁻¹] | KD2 [3] [M] | ka2 [3] | kd2 [3] [s⁻¹] | Kd [4] [nM] | kon [5] [M⁻¹ s⁻¹] | koff [6] [s⁻¹] | ka2 [7] | kd2 [7] [s⁻¹] | Kd [8] [nM] | kon [9] [M⁻¹ s⁻¹] | koff [10] [s⁻¹]
B1 | 8.2 | 0.000511 | 62300 | 0.000503 | 3.39 | 4.37e-05 1/RUs | 0.000148 | 1200 | 87000 | 0.104 | – | – | – | – | –
B2 | 2.61 | 0.00031 | 119000 | 0.00175 | 2.08 | 6.98e-05 1/RUs | 0.000145 | 1460 | 102000 | 0.148 | – | – | – | – | –
B3 | – | – | – | – | – | – | – | – | – | – | 3.1e-05 1/RUs | 0.001 | 1300 | 120000 | 0.16
B4 | – | – | – | – | – | – | – | – | – | – | 2.3e-05 1/RUs | 0.00054 | 1200 | 120000 | 0.15
